Measurements from paper PMC6901265 (2019).

Assays:
[1] = molecular target: T1, EBV BRLF1 peptide on HLA-A*02:01 (human); experiment: multimer staining
T1 peptide: YVLDHLIVV

[2] = molecular target: T2, tyrosinase peptide on HLA-A*02:01 (human); experiment: activation reporter or marker
T2 peptide: YMDGTMSQV

B1: WT TCR AV8.1-CAVKDTDKLIF-AJ34 BV24.1-CATSDWDDSTGELFF-BJ2.2 (TCR)
alpha AV8.1 AJ34 CDR3: CAVKDTDKLIF
beta BV24.1 BJ2.2 CDR3: CATSDWDDSTGELFF
B1: recognises [1]; no recognition [2].
